The target in assay [1] is HA-tagged Atp1a3 T705A (mouse) (UniProt Q8VCE0). As to the kind of experiment: co-IP; HEK 293T cells co-transfected with HA-tagged Atp1a3 (WT, TA or TD) and YFP-β1 or YFP-β2; α3 precipitated with anti-HA beads (clone 3F10) 2 h at 4°C in IP buffer (20 mM Tris pH 8.0, 150 mM NaCl, 1% NP40, 10% glycerol); β detected with a GFP antibody; band densitometry normalised to WT.
The target of assay [2] is HA-tagged Atp1a3 T705D (mouse) (UniProt Q8VCE0). The assay is described as above.

As for “YFP-tagged Na,K-ATPase β1 subunit (rat) (from UniProt P07340 1-304) (natural protein)”, in assay [1], the co-precipitated higher (complex-glycan) β band, relative intensity normalized to WT (normalized to WT) worked out at 58.3 and the co-precipitated lower (intracellular) β band, relative intensity normalized to WT (normalized to WT) turned out to be 101. In assay [2], this substance yielded a co-precipitated higher (complex-glycan) β band, relative intensity normalized to WT (normalized to WT) of 6.59 and a co-precipitated lower (intracellular) β band, relative intensity normalized to WT (normalized to WT) of 95.

In assay [1], “YFP-tagged Na,K-ATPase β2 subunit (human) (from UniProt P14415 1-290) (natural protein)” displayed a co-precipitated higher (complex-glycan) β band, relative intensity normalized to WT (normalized to WT) of 16.3 and a co-precipitated lower (intracellular) β band, relative intensity normalized to WT (normalized to WT) of 82.7. Moreover, in assay [2], the co-precipitated higher (complex-glycan) β band, relative intensity normalized to WT (normalized to WT) was 2.81 and the co-precipitated lower (intracellular) β band, relative intensity normalized to WT (normalized to WT) is 80.5.

Source of the values: paper PMC6312924.
